Earlier results as cited in article PMC3061978.

Target: methylamine dehydrogenase (MADH) (Paracoccus denitrificans) (UniProt P22619)
Test: kinetics

Sequence of UniProt P22619 (P22619 58-188, chain 1 of 2): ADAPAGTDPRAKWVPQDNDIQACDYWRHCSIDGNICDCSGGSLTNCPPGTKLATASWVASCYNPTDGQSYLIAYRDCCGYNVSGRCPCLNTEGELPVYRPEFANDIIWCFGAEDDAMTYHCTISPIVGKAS
Sequence of UniProt P22619 (P29894 29-417, chain 2 of 2, further chain): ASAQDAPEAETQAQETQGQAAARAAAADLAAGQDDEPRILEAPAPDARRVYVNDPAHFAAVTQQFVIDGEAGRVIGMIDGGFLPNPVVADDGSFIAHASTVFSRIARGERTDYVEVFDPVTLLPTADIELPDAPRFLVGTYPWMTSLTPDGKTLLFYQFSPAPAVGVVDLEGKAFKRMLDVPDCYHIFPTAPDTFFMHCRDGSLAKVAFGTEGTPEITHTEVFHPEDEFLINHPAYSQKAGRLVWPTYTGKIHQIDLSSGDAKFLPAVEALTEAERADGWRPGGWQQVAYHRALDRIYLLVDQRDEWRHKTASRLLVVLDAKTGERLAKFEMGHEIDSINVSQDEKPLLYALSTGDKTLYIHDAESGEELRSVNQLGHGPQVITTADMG

For MauG (from UniProt Q51658), the Kd is given as 10.1 µM.
